Results on 18 molecules are retold here after patent publication US20220096649A1 (TALLAC THERAPEUTICS, published 2022).

B1: Hum9/AB21_HC_Mutall (antibody, V domains shown)
VH: EVQLVESGGGVVQPGGSLRLSCAASGFTFSSNAMSWVRQAPGKGLEWVAGISAGGSDTYYPASVKGRFTISRDNSKNTLYLQMNSLRAEDTAVYYCARETWNHLFDYWGQGTLVTVSS
VL: SYELTQPPSVSVSPGQTARITCSGGAYSSYYYAWYQQKPGQAPVLVIYSDDKRPSGIPERFSGSSSGTTVTLTISGVQAEDEADYYCGGYDQSSYTNPFGGGTKLTVL
notes: Whole antibody
B2: Anti-SIRP-α antibody 136, light chain wt, heavy chain Mut (antibody, V domains shown)
VH: EVQLVESGGGVVQPGRSLRLSCAASGFTFSSYDVNWVRQAPGKGLEWVSLISGSGEIIYYADSVKGRFTISRDNSKNTLYLQMNSLRAEDTAVYYCAKENNRYRFFDDWGQGTLVTVSS
VL: ETVLTQSPGTLTLSPGERATLTCRASQSVYTYLAWYQEKPGQAPRLLIYGASSRATGIPDRFSGSGSGTEFTLTISSLQSEDFAVYYCQQYYDRPPLTFGGGTKVEIK
notes: Whole antibody; Heavy chain mut = D1E, R13Q, E16R, M34V, E43K, L111Q
B3: Anti-SIRP-α antibody 136, light chain Mut_Q38E, heavy chain Mut (antibody, V domains shown)
VH: B2 VH
VL: B2 VL with T2I, T12S, T22S
notes: Whole antibody
B4: Anti-SIRP-α antibody 136, light chain Mut, heavy chain Mut (antibody, V domains shown)
VH: B2 VH
VL: B2 VL with T2I, T12S, T22S, E38Q
notes: Whole antibody
B5: Anti-SIRP-α antibody 136, light chain Mut_S22T, heavy chain Mut (antibody, V domains shown)
VH: B2 VH
VL: B2 VL with T2I, T12S, E38Q
notes: Whole antibody
B6: Anti-SIRP-α antibody 136, light chain Mut_I2T, heavy chain Mut (antibody, V domains shown)
VH: B2 VH
VL: B2 VL with T12S, T22S, E38Q
notes: Whole antibody
B7: Anti-SIRP-α antibody 136, light chain wt, heavy chain wt (antibody, V domains shown)
VH: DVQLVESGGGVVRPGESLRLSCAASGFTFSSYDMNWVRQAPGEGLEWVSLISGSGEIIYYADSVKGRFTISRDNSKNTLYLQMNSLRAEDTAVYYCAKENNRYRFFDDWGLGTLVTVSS
VL: B2 VL
notes: Whole antibody
B8: Anti-SIRP-α antibody 136, light chain Mut, heavy chain wt (antibody, V domains shown)
VH: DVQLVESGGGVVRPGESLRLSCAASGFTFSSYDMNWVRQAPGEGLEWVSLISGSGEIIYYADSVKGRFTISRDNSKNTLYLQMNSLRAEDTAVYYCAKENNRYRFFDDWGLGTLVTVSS
VL: B2 VL with T2I, T12S, T22S, E38Q
notes: Whole antibody; Light chain mut = T2I, T12S, T22S, E38Q
B9: Anti-SIRP-α antibody 136, light chain Mut_S12T, heavy chain Mut (antibody, V domains shown)
VH: B2 VH
VL: B2 VL with T2I, T22S, E38Q
notes: Whole antibody
B10: Anti-SIRP-α antibody 136, light chain Mut_I2T, heavy chain Mut_V34M (antibody, V domains shown)
VH: B2 VH with V34M
VL: B2 VL with T12S, T22S, E38Q
notes: Whole antibody
B11: Anti-SIRP-α antibody 119, light chain Mut, heavy chain wt (antibody, V domains shown)
VH: EVQLLESGGGVVQPGGSLRLSCAASGFSFSNFAMTWVRQAPGEGLEWVSTIGSGDTYYADSVKGRFTISRDNSKNTLYLQMNSLRAEDTAVYYCAKDSTVSWSGDFFDYWGLGTLVTVSS
VL: EIVLTQSPATLSVSPGERATLSCRASQNVKNDLAWYQQKPGQAPRLLIYAARIRETGIPARFSGSGSGTEFTLTISSLQSEDFAVYYCQQYYDWPPFTFGGGTKVEIK
notes: Whole antibody; Light chain mut = F21L, R39K, E60A, T76S
B12: Anti-SIRP-α antibody 119, light chain wt, heavy chain wt (antibody, V domains shown)
VH: B11 VH
VL: B11 VL with L21F, K39R, A60E, S76T
notes: Whole antibody (FreeStyle 293-FS, protein A purified)
B13: Anti-SIRP-α antibody 135, light chain Mut, heavy chain wt (antibody, V domains shown)
VH: B11 VH with E1D, L5V, Q13R, G16E, N31I, F32Y, T35S, S53A, G54D, S101G
VL: B11 VL with A19V, K30R, N31S, L33I, R52S, I53S, E55D, E70D, A84G
notes: Whole antibody; Light chain mut = F21L, D60A
B14: Anti-SIRP-α antibody 135, light chain wt, heavy chain wt (antibody, V domains shown)
VH: B11 VH with E1D, L5V, Q13R, G16E, N31I, F32Y, T35S, S53A, G54D, S101G
VL: EIVLTQSPATLSVSPGERVTFSCRASQNVRSDIAWYQQKPGQAPRLLIYAASSRDTGIPDRFSGSGSGTDFTLTISSLQSEDFGVYYCQQYYDWPPFTFGGGTKVEIK
notes: Whole antibody
B15: Anti-SIRP-α antibody 119, light chain Mut, heavy chain Mut_V34M (antibody, V domains shown)
VH: B11 VH with E43K, L112Q
VL: B11 VL
notes: Whole antibody
B16: Anti-SIRP-α antibody 119, light chain wt, heavy chain Mut (antibody, V domains shown)
VH: B11 VH with M34V, E43K, L112Q
VL: B11 VL with L21F, K39R, A60E, S76T
notes: Whole antibody; Heavy chain mut = D1E, E43K, L112Q, M34V
B17: Anti-SIRP-α antibody 135, light chain wt, heavy chain Mut (antibody, V domains shown)
VH: B11 VH with L5V, N31I, F32Y, M34V, T35S, E43K, S53A, G54D, S101G, L112Q
VL: B14 VL
notes: Whole antibody; Heavy chain mut = D1E, R13Q, E16G, M34V, E43K, L112Q
B18: Anti-SIRP-α antibody 119, light chain Mut, heavy chain Mut (antibody, V domains shown)
VH: B11 VH with M34V, E43K, L112Q
VL: B11 VL
notes: Whole antibody

By Kd is commonly meant the free concentration of one partner at which half of the binding sites on the other are occupied at equilibrium, for simple one-to-one binding. Low readings indicate higher affinity, high ones lower affinity.

Residue numbers refer to the chain shown, from its start. Names and notes keep the numbering of the source.

The target in one experiment is T1, SIRP-α human v2 (human, UniProt P78324 31-149, limits assumed).
T1 construct: Soluble analyte in SPR
T1 sequence (P78324 other isoform, or with tags, fused parts or gaps limits assumed): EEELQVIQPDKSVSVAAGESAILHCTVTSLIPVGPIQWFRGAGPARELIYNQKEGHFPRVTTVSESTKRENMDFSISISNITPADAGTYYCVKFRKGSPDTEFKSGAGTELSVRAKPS
In words: SPR, antibody on GLC chip, SIRP as analyte. The procedure:
(§1) The running buffer was PBS pH 7.4 with 0.01% TWEEN-20 (PBST+). All analytes were used at their nominal concentrations as determined by A280 absorbance and using their molar calculated extinction coefficient. Analytes were injected in a “one-shot” kinetic mode as described (see, e.g., Bravman et al., Anal. Biochem. 2006, 358, 281-288).
(§2) For the method using a GLC chip, the analytes were injected and flowed over anti-SIRPα antibodies immobilized (˜1000 RUs) on GLC chips using Proteon Amine Coupling Kit. For the immobilization step, the GLC chip was activated with EDAC/Sulpho-NHS 1:1 (Biorad) diluted 1/100 for 300 s at 25 μL/min. Anti-SIRPα antibodies were diluted to 80 nM concentration in 10 mM sodium acetate buffer pH 4.5 and immobilized to the chip at 30 μL/min for 50 s. Chip was inactivated with ethanolamine for 300 s at 25 μL/min. The analytes (e.g., SIRP-α from different species, SIRP-β, SIRP-γ) were injected in a “one-shot” kinetic mode at nominal concentrations of 100, 33, 11, 3.7, 1.2, and 0 nM. Association times were monitored for 90 s at 100 uL/min, and dissociation times were monitored for 1200 s. The surfaces were regenerated with a 2:1 v/v blend of Pierce IgG elution buffer/4M NaCl.
(§3) Biosensor data were double-referenced by subtracting the interspot data (containing no immobilized protein) from the reaction spot data (immobilized protein) and then subtracting the response of a buffer “blank” analyte injection from that of an analyte injection. Double-referenced data were fit globally to a simple Langmuir model and the KD value was calculated from the ratio of the apparent kinetic rate constants (KD=kd/kₐ).
In general terms: In SPR one partner is held on a chip, and binding of the other changes the refractive index at the surface.
The molecule B1 displayed an equilibrium dissociation constant (Kd) of 0.12 nM.
For the molecule B2, the Kd came out at 1.7 nM.
Still for that read-out and setting: in the case of B3 it was 13 nM.
Same read-out and setting: for B4 the value was 20 nM; for B5, 8.3 nM; for B6, 1.8 nM.
In turn, B7 gave a Kd of 1.6 nM. The Kd values of the last two molecules are within 1.5-fold of each other.
Still for that read-out and setting: in the case of B8 it was 17 nM; in that of B9, 11 nM; in that of B10, 17 nM.
With B11, the dissociation constant Kd came to 0.086 nM. Against the preceding molecule, the Kd is about 200-fold lower.
Molecule B12 displayed a Kd of 0.068 nM.
Same read-out and setting: for B13 the value was 0.027 nM; for B14, 0.029 nM.
The same measure, in the same setting: in the case of B15 it was 0.069 nM; in that of B16, 0.069 nM.
The same measure, in the same setting: in the case of B17 it was 0.02 nM.
B18 displayed a Kd of 0.088 nM.

The target in another experiment is T2, SIRP-α cynomolgus (cynomolgus, UniProt A0A2K5VYQ9 31-148).
T2 construct: Soluble analyte in SPR; also called cynomologous monkey SIRP-α
T2 sequence: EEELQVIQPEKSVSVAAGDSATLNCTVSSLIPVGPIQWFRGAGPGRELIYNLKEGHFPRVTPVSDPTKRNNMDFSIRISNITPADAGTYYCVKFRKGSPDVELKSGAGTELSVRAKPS
Put plainly: SPR, antibody on GLC chip, SIRP as analyte. How it is done:
as §1, §2, §3
B1: the Kd worked out at 0.22 nM.
The molecule B10 gave a dissociation constant (Kd) of 2.1 nM.
Still for that read-out and setting: for B11 the value was 0.14 nM.
Same read-out and setting: in the case of B12 it was 0.11 nM.
On the same count and under the same terms, for B13 the value was 0.1 nM; for B14, 0.097 nM.
B15 had a Kd of 0.12 nM.
On the same count and under the same terms, for B16 the value was 0.16 nM.
On the same count and under the same terms, in the case of B17 it was 0.13 nM; in that of B18, 0.2 nM.

The target in another experiment is T3, SIRP-α mouse BL6 (mouse (BL6), UniProt P97797 32-150, limits assumed).
T3 construct: Soluble analyte in SPR
T3 sequence (looked up): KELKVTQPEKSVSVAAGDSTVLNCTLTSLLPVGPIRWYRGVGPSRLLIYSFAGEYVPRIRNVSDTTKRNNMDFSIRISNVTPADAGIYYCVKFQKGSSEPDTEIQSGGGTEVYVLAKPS
In words: SPR, antibody on GLC chip, SIRP as analyte. How it is done:
as §1, §2, §3
B2 came in with a Kd of 23 nM.
The same measure, in the same setting: for B3 the value was 33 nM.
The molecule B4 displayed an equilibrium dissociation constant (Kd) of 32 nM.
Still for that read-out and setting: for B5 the value was 13 nM.
Still for that read-out and setting: for B6 the value was 15 nM; for B7, 13 nM.
On the same count and under the same terms, in the case of B8 it was 33 nM; in that of B9, 16 nM.
B10 gave a Kd of 14 nM. This Kd and that of the molecule before are within 1.5-fold of each other.
For B11, the binding result was “no binding (tested: 100 nM (highest analyte concentration))”.
Same read-out and setting: in the case of B12 it was “no binding (tested: 100 nM (highest analyte concentration))”.
Still for that read-out and setting: in the case of B13 it was “no binding (tested: 100 nM (highest analyte concentration))”.
Still for that read-out and setting: for B14 the value was “no binding (tested: 100 nM (highest analyte concentration))”; for B15, “no binding (tested: 100 nM (highest analyte concentration))”; for B16, “no binding (tested: 100 nM (highest analyte concentration))”.
Take B17: the binding result was “no binding (tested: 100 nM (highest analyte concentration))”.
Still for that read-out and setting: for B18 the value was “no binding (tested: 100 nM (highest analyte concentration))”.

For another experiment, the target named is T4, Human SIRPβ (human, UniProt O00241 30-148).
T4 construct: Soluble analyte in SPR
T4 sequence (O00241 30-148): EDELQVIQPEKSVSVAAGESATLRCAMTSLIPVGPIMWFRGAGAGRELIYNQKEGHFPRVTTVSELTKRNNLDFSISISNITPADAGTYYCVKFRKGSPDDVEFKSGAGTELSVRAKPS
Put plainly: SPR, antibody on GLC chip, SIRP as analyte. The procedure: as §1, §2, §3
As for B1, binding was put at a Kd of 0.057 nM.
Still for that read-out and setting: in the case of B2 it was 3.5 nM.
The same measure, in the same setting: in the case of B6 it was 3.2 nM.
In the case of B7, the Kd was 4.4 nM. The Kd values of the last two molecules are within 1.5-fold of each other.
B10 returned a dissociation constant (Kd) of 2.2 nM.
The same measure, in the same setting: in the case of B12 it was 0.34 nM; in that of B15, 0.34 nM; in that of B18, 0.46 nM.

The target of a further experiment is T5, Human SIRPγ (human, UniProt Q9P1W8 29-147, limits assumed).
T5 construct: Soluble analyte in SPR
T5 sequence (Q9P1W8 29-147 limits assumed): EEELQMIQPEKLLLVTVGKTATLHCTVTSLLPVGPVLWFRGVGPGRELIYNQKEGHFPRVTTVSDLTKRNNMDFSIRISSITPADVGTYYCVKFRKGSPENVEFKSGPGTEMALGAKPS
In words: SPR, antibody on GLC chip, SIRP as analyte. The procedure:
as §1, §2, §3
Consider B1, for which the equilibrium dissociation constant (Kd) worked out at 0.035 nM.
The same measure, in the same setting: for B2 the value was 17 nM; for B3, 19 nM; for B4, 1.7 nM.
As to B5, the dissociation constant Kd was determined as 62 nM.
The same measure, in the same setting: in the case of B6 it was 40 nM; in that of B7, 24 nM; in that of B8, 20 nM.
The same measure, in the same setting: in the case of B9 it was 67 nM; in that of B10, 34 nM.
Still for that read-out and setting: in the case of B11 it was 0.23 nM; in that of B12, 0.27 nM; in that of B13, 0.52 nM.
B14 registered a dissociation constant Kd of 0.54 nM.
Same read-out and setting: for B15 the value was 0.26 nM; for B17, 0.78 nM; for B18, 0.34 nM.
